According to PMC10900128 (Chembiochem : a European journal of chemical biology, 2018):
*: point of attachment. FITC = O=C1OC2(c3ccc(O)cc3Oc3cc(O)ccc32)c2ccc(NC(=S)*)cc21; βAla = NCCC(=O)O

Target: T1, FITC-MLL peptide (SMILES …)
T1 peptide: {FITC-βAla}-DAGNILPSDIMDFVLKNTP-NH2
Assay: fluorescence polarisation

binding result: binds
B1: GACKIX N627C (GACKIX domain of mouse CBP, residues 586–672, N627C mutant), unlabeled (domain or fragment)
chain: not shown
